These results are taken from patent US20230312758A1, “BISPECIFIC ANTIBODY AGAINST CD3 AND CD20 IN COMBINATION THERAPY FOR TREATING FOLLICULAR LYMPHOMA” (GENMAB A/S, priority 2020, published 2023).

Series [1] deals with primary DLBCL and follicular lymphoma patient biopsies. The conditions noted are these: cited from earlier work.
For a further series, the system named is R/R follicular lymphoma. The series can be described thus: Phase 1b study of epcoritamab with rituximab and lenalidomide (R^2). The conditions noted are these: preliminary data. Format: in vivo, human. The procedure:
The trial is conducted in 2 parts: dose escalation (Part 1) and expansion (Part 2). Subjects participate in only one part. Both parts consist of a screening period, a treatment period, a safety follow-up period, and a survival follow-up period.
The Part 1 dose escalation assesses the initial safety, tolerability, and clinical activity of epcoritamab in combination with R^2. Epcoritamab is initially be administered in combination with R^2 in a 3-subject cohort. DLTs are evaluated during the first 28 days. […]
In Part 2, epcoritamab is administered (with the dosing regimen determined in the dose escalation part) in combination with R^2. […]
Disease response is assessed according to both Lugano criteria (described in Cheson et al., J Clin Oncol 2014; 32:3059-68 (see, in particular, Table 3 in Cheson et al., 2014) and LYRIC (Table 8) to inform decisions on continuation of treatment. […]
Safety is assessed by measuring adverse events, laboratory test results, ECGs, vital sign measurements, physical examination findings, and ECOG performance status. Also assessed are immune effector cell-associated neurotoxicity syndrome (e.g., as described by Lee et al., Biol BloodMarrow Transplant 2019; 25:625-638), constitutional symptoms (B symptoms), tumor flare reaction, and survival. […]

For the next series, the system named is R/R B-NHL. The series can be described thus: epcoritamab monotherapy clinical trial (NCT03625037). Format: in vivo, human. The conditions noted are these: R/R B-NHL patients, preliminary data. An excerpt: Epcoritamab as monotherapy is currently in a clinical trial for the treatment of R/R B-NHL (ClinicalTrials.gov Identifier: NCT03625037).
Series [2] concerns CD20-expressing Daudi cells. The series can be described thus: DuoBody-CD3xCD20-induced T-cell-mediated cytotoxicity assay. Particulars: T cells pre-treated with lenalidomide and anti-CD3; E:T ratio 2:1. Format: cell-based. On the procedure: T cells were incubated with (5 or 50 μM) or without lenalidomide in the absence or presence of immobilized anti-CD3 for 3 days. T cells were then used in a cytotoxicity assay with DuoBody-CD3xCD20 or DuoBody-CD3xctrl (containing a CD3 arm and a non-binding control arm) and CD20-expressing Daudi cells as target cells (E:T ratio 2:1). Data shown are average percentages cytotoxicity ±SD of duplicates, normalized to medium control (no antibody, no lenalidomide).
(§1) This experiment was performed to determine the impact of lenalidomide on Duobody-CD3xCD20-induced T-cell activation and T-cell-mediated cytotoxicity.
(§2) Briefly, T cells were activated with immobilized anti-CD3 in the presence (5 or 50 μM) or absence of lenalidomide for 3 days. […] T cells that were activated in the presence or absence of lenalidomide were subsequently tested for their cytotoxic capacity in response to epcoritamab.

For series [3], the system named is CD20-expressing Raji-luc tumor cells. Particulars: NOD-SCID mice injected with Raji-luc tumor cells and PBMCs; even in presence of excess IgG1-RTX-FEAR; cited from earlier work.
The next series deals with T cells. The series can be described thus: T-cell activation with immobilized anti-CD3 in presence or absence of lenalidomide. In kind it is cell-based. Particulars: 5 or 50 μM lenalidomide, CD3 crosslinking, 3 days; compared to no lenalidomide. The procedure: T cells were pre-incubated with assay medium or lenalidomide in the absence or presence of CD3 crosslinking by immobilized anti-CD3 for 3 days (as indicated on the x-axes), after which upregulation of CD69, CD25, PD-1 and LAMP-1 on CD4^+ and CD8^+ T cells was determined by flow cytometry. Data shown are geomean fluorescence intensities (FI) for four donors (each circle represents one condition for one donor). Pre-incubation conditions are shown on the x-axis.
as §1, §2

The subject of another series is follicular lymphoma. Particulars: double-refractory cases; cited from earlier work.
The next series addresses T1, CD20 (Homo sapiens, UniProt P11836).
T1 sequence (P11836 1-297): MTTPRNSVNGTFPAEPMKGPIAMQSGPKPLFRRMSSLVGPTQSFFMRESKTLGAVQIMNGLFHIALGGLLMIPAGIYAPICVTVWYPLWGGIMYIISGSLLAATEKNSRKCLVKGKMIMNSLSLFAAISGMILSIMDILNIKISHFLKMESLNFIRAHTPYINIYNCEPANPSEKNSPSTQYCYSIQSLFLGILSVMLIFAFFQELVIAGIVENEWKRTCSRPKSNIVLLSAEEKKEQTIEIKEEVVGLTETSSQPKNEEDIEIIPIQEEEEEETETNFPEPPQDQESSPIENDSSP
The conditions noted are these: rituximab versus IgG1-CD20; bind to a different epitope; cited from earlier work.

On to “epcoritamab: IgG1 bispecific CD3xCD20 antibody; heavy/light chain pairs SEQ ID NOs: 24/25 and 26/27; CAS 2134641-34-0”, for which the tumor cell kill entry in series [1] (biopsy taken 2 weeks after administering the anti-CD20 antibody) is listed as “up to 40%”. Besides, the T-cell-mediated cytotoxicity entry in series [1] is given as “induced T-cell-mediated cytotoxicity”. The “incidence of CRS compared with single-agent epcoritamab” value with R/R follicular lymphoma is on record as “relatively lower incidence of CRS with the combination”. For the same compound, the tolerated dose entry in the series with R/R B-NHL (including 60 mg) is listed as “at least 48 mg”. Besides, in the series with R/R B-NHL, the dose-limiting toxicities result was “no dose-limiting toxicities reported”. Further, in series [2], the “cytotoxicity (dose response)” value is “Higher maximum percent cytotoxicity and higher activity at lower epcoritamab concentrations”. In series [3], the tumor growth entry is “effectively reduce tumor growth”.

Consider `Nc1cccc2c1CN(C1CCC(=O)NC1=O)C2=O` (centres unmarked) [lenalidomide, 3-(4-Amino-1-oxo-1,3-dihydro-2H-isoindol-2-yl) piperidine-2,6-dione], for which the “T-cell activation (CD69, CD25 upregulation, release of granzyme B and IFNγ)” value with T cells is “increased T-cell activation”.

In the case of `CC[C@H](Nc1ncnc2[nH]cnc12)c1nc2cccc(F)c2c(=O)n1-c1ccccc1` [idelalisib], in the series on follicular lymphoma, the “1-year PFS” value is on record as 43% and the toxicities entry was “several toxicities leading to treatment discontinuation”.

With “IgG1-CD20: antibody of which the CD20 arm of epcoritamab is derived”, the “competition for CD20 binding” value with CD20 is on record as “compete for CD20 binding”.
